Test results as given in patent US20230332251A1.

Target: histidine kinase UzcS (Caulobacter crescentus NA1000)
Experiment: cell-based or functional assay

Chain of histidine kinase UzcS (Caulobacter crescentus NA1000) (chain, as listed by the source limits assumed, form in doubt): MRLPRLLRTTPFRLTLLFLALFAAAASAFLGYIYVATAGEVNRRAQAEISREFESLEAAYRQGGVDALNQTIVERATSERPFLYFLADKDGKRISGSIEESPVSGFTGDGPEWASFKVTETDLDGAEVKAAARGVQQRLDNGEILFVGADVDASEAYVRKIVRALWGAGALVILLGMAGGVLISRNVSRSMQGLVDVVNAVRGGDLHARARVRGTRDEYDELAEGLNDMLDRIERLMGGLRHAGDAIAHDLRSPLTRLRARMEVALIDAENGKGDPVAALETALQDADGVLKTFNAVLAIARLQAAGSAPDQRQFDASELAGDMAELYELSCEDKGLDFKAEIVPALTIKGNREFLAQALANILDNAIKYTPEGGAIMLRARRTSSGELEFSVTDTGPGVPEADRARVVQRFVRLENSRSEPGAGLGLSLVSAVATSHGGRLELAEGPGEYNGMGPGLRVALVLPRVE

UzcY (protein encoded by CCNA_03497)
fold decrease in U detection limit of UzcRS (reporter fluorescence in C. crescentus, +UzcY versus -UzcY, FIG. 12): > 4 fold
